The results in this text go back to patent publication US20260317430 (published 2026).

One assay concerns the target T1, mouse FGFR2b (mouse, UniProt P21803).
T1 chain: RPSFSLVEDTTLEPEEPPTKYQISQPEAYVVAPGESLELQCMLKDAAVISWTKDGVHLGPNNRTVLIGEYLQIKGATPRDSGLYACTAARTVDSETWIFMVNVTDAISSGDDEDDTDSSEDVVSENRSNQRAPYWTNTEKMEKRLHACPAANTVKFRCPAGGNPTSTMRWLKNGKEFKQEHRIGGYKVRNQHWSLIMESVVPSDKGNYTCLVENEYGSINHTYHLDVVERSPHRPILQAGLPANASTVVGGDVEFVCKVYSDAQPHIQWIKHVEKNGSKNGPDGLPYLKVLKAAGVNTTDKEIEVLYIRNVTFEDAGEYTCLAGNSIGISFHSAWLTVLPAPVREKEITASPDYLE
Nature of the assay: BLI.

Assay [1] deals with T2, human FGFR2b extracellular domain (human, UniProt P21802). Nature of the assay: BLI. (Biolayer interferometry detects binding as a change in optical thickness at a sensor tip.)
Assay [2] concerns the target human FGFR2b on KATO III cells (human, UniProt P21802). The experiment in a line: FACS. Background: In flow cytometry, cells or beads pass a laser one at a time.
Assay [3] deals with T2, human FGFR2b extracellular domain. The experiment in a line: ELISA. In general terms: ELISA stands for enzyme-linked immunosorbent assay.

Chain of human FGFR2b on KATO III cells (P21802 22-377): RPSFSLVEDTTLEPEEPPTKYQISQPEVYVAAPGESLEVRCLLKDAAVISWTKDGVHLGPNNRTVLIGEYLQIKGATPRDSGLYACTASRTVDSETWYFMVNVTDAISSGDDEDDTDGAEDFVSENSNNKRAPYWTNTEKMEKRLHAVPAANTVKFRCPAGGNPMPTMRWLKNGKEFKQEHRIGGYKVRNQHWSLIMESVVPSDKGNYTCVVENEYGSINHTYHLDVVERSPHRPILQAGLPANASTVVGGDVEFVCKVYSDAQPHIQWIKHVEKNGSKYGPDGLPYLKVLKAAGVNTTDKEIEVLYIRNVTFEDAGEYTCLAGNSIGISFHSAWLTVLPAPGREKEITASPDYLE
T2 sequence (P21802 22-377): as above

B1: 3E1 (antibody, V domains shown)
VH: QVQLQQPGAEVVKPGASVKMSCKASGYTFTDYYIHWVKQTPGQGLEWIGAIYPDNGDTSYNQKFKVKATLTADKSSSTAYMQLSSLTSEDSAVYYCARAFTYWGQGTLVTVSA
VL: DILITQSPASLSASVGETVTITCGASENIYGALNWYQRKQGKSPQLLIYGATNLADGMSSRFSGSGSGRQYSLKISSLHPDDVATYYCQNVLSTPYTFGGGTKLEIK
As usually defined, the Kd is the constant that tells how readily two partners part at equilibrium. A word on the EC50: it is the midpoint of the concentration-response curve. Read a high EC50 as weaker potency. With B1, the Kd in the assay with mouse FGFR2b stood at 21.8 nM; in assay [1] it was 4.5 nM. The values for the EC50 in assay [2] and in assay [3] were 0.132 µg/mL and 0.0156 µg/mL, respectively.

B2: 3D7 (antibody, V domains shown)
VH: QVQLQQSGAELVKPGASVKMSCKASGYTFSFYNMHWVKRTPGRGLEWIGLIYPDNGDTSYNQKFKGKATLTADTSSSTAYMQLSSLTSEDSAVYYCARGGLDYWGQGTSLTVSS
VL: EIVLTQSPASLAVSLGQRATISCKASQSVDYDGDSYMNWYQQKPGQPPKLLIYGISNRFSGVPDRFSGSGSGTDFTLKISTIKPEDLGMYYCLQGTHQPYTFGGGTKLEIK
For B2, the Kd in the assay with mouse FGFR2b turned out to be 81.7 nM; in assay [1] it was 8.58 nM. In addition, the EC50 is 0.259 µg/mL in assay [2] and 0.0369 µg/mL in assay [3].

B3: 3B4 (antibody, V domains shown)
VH: EVQLQQSGADLVKPGASVKMSCKASGYTFSYYNMHWVRRTPGQGLEWIGLIYPDNGDTSYNQKFKGKATLTADTSSSTAYMQLSSLTSEDSAVYYCARGGLDYWGQGTTLTVSS
VL: DIQMIQSPASMSASVGETVTITCGASENIYGALNWYQRKQGKSPQLLIYGATNLADGMSSRFSGSGSGRQYSLKISSLHPDDVATYYCQNVLSTPYTFGGGTKLEMK
B3: the Kd with mouse FGFR2b came out at 27.3 nM; in assay [1], 6.28 nM. The figures for the EC50 in assay [2] and in assay [3] were 0.168 µg/mL and 0.0166 µg/mL, respectively.

B4: 3E7 (antibody, V domains shown)
VH: QVQLQQSGAELVKPGASVKMSCKASGYTFTIYNIHWVRQTPGQGLEWIGLIYPDNGDTSYNQKFKAKATLTADKSSSTAYMQLSSLTSEDSAVYYCARGGFDYWGQGTTLTVSS
VL: NIVMTQSQKFMSTSVGDRVSVTCKASQNVGTNVAWYQQKPGQSPKALIYSASYRYSGVPDRFTGSGSGTDFTLTISGVQAEDLADYYCQQHYNTPYTFGGGTKLEIK
Consider B4, for which the results for the Kd (with mouse FGFR2b; in assay [1]) were 40.9 nM and 4.35 nM, respectively. In addition, the EC50 in assay [2] was determined as 0.298 µg/mL; in assay [3], 0.0154 µg/mL.

B5: 3F10 (antibody, V domains shown)
VH: EVQLQQSGAELVKPGASVKMSCKASGYTFSFYNIHWVRQTPGQGLEWIGLIYPDNGDTSYNQKFKAKATLTADKSSSTAYMQLSSLTSEDSAVYYCARGGFDYWGQGTTLTVSS
VL: DVLMTQSPASLSASVGETVTITCGASENIYGALNWYQRKQGKSPQLLIYGATNLADGMSSRFSGSGSGRQYSLKISSLHPDDVATYYCQNVLSTPYTFGGGTKLEIK
With B5, the Kd is 52.5 nM in the assay with mouse FGFR2b and 7.62 nM in assay [1]. For the same molecule, the figures for the EC50 in assay [2] and in assay [3] were 0.159 µg/mL and 0.00818 µg/mL, respectively.

B6: 3A12 (antibody, V domains shown)
VH: EVQLQQSGAELVKPGASVKMSCKASGYTFSFYNVHWVRQTPGQGLEWIGLIYPDNGDTSYNQKFKAKATLTADKSSSAAYMQLSSLTSEDSAVYYCARGGFDYWGQGTSLTVSS
VL: DIVMTQSHKFMSTSVGDRVNITCKASQDVSTAVAWYQQKPGQSPKLLIYSASYRYSGVPDRFTGSGSGTDFTFTISSVQAEDLAVYYCQQHYSTPYTFGGGTKLEMK
With B6, the figures for the Kd (in the assay with mouse FGFR2b; in assay [1]) were 10.7 nM and 2.82 nM, respectively. For the same molecule, the EC50 came to 0.292 µg/mL in assay [2] and 0.0128 µg/mL in assay [3].

B7: 3F11 (antibody, V domains shown)
VH: QVQLQQSGAELVKPGASVKMSCKASGYTFAPYNIHWVRQTPGQGLEWIGLIYPDNGDTSYNQKFKAKATLTADKSSSTAYMQLSSLTSEDSAVYYCARGGFDYWGQGTSLTVSS
VL: DIVMTQSQKFMSTSVGDRVSVTCKASQNVGTNVAWYQQKPGQSPKALIYSASYRYSGVPDRFTGSGSGTDFTLTISNVQSEDLAEYFCQQHYSTPFTFGSGTKLEIK
On to B7, for which the Kd amounted to 26 nM with mouse FGFR2b and 6.13 nM in assay [1]. Also, the EC50 in assay [2] was determined as 0.164 µg/mL; in assay [3], 0.0156 µg/mL.

B8: 3A8 (antibody, V domains shown)
VH: QVQLQQSGAELVKPGASVKMSCKASGYTFTIYNIHWVRQTPGQGLEWIGLIYPDNGDTSYNQKFKAKATLTADKSSSTAYMQLSSLTSEDSAVYYCARGGFDYWGQGTSLTVSS
VL: DIVMTQSQKFMSTSVGDRVSVTCKASQNVGTNVAWYQQKPGQSPKALIYSASYRYSGVPDRFTGSGSGTDFTLTISNVQAEDLADYFCQQHYSTPYTFGGGTKLEMK
Turning to B8, the values for the Kd (in the assay with mouse FGFR2b; in assay [1]) were 7.17 nM and 3.48 nM, respectively. Also, the EC50 in assay [2] was found to be 0.199 µg/mL; in assay [3] it was 0.0278 µg/mL.

B9: 3D6 (antibody, V domains shown)
VH: QVQLQQSGAELVKPGASVKMSCKASGYTFRYYNMHWVKRTPGQGLEWIGLIYPDNGDTSYNQKFKGKATLTADTSSSTAYMQLSSLTSEDSAVYYCARGGLDYWGQGTSLTVSS
VL: DIQMTQSPASLSVSVGETVTITCRASENIYSNLAWYQQKQGKSPQLLVYNAKTLADGVPSRFSGSGSGTQYSLKINSLQPEDFGSYYCQHFWSTPFTFGSGTKLELK
As to B9, the Kd with mouse FGFR2b is 21.7 nM; in assay [1], 15 nM. In addition, the values for the EC50 in assay [2] and in assay [3] were 0.136 µg/mL and 0.0369 µg/mL, respectively.

B10: 3H6 (antibody, V domains shown)
VH: QVQLQQSGAELVKPGASVKMSCKASGYTFSFYNIHWVRQTPGQGLEWIGLIYPDNGDTSYNQKFKAKATLTADKSSSTAYMQLSSLTSEDSAVYYCARGGFDYWGQGTTLTVSS
VL: DIQMTQSPASLSASVGETVTITCRASENIYSYLAWYQQKQGKSPQLLVYNAKTLAEGVPSRFSGSGSGTQFSLKINSLQPEDFGSYYCQHHYGTPYTFGGGTKLEMK
Turning to B10, the Kd with mouse FGFR2b was 43.7 nM; in assay [1] it was 8.41 nM. In addition, the EC50 in assay [2] amounted to 0.226 µg/mL; in assay [3], 0.0128 µg/mL.

B11: 3E3 (antibody, V domains shown)
VH: QVQLQQPGAVLVKPGASVRMSCKASGYTFPYYNVHWVKRTPGQGLEWIGLIYPDNGDTSYNQKFTGKATLTADTSSSTAYMQLSSLTSEDSAVYYCARGGLDYWGQGTTLTVSA
VL: DVQITQSPASLSASVGETVTITCGASENIYGALNWYQRKQGKSPQLLIYGATNLADGMSSRFSGSGSGRQYSLKISSLHPDDVATYYCQNVLSTPYTFGGGTKLEIK
Turning to B11, the Kd with mouse FGFR2b turned out to be 52.7 nM; in assay [1] it was 8.18 nM. Besides, the values for the EC50 in assay [2] and in assay [3] were 0.376 µg/mL and 0.0273 µg/mL, respectively.

B12: 1D7 (antibody, V domains shown)
VH: QIQLQQSGAELVKPGASVKMSCKASGYTFRYYNMHWVKRTPGQGLEWIGLIYPDNGDTSYNQKFKGKATLTADTSSSTAYMQLSSLTSEDSAVYYCARGGLDYWGQGTSLTVSS
VL: DIQMTQSPSSMSASLGDRITITCQATQDIVKNLNWYQQKPGKPPSFLIYYATELAEGVPSRFSGSGSGSDYSLTISNLESEDFADYYCLQFYEFPLTFGAGTKLELK
As to B12, the results for the Kd (with mouse FGFR2b; in assay [1]) were 27.6 nM and 4.51 nM, respectively. Further, the EC50 was 0.167 µg/mL in assay [2] and 0.0154 µg/mL in assay [3].

B13: 3F5 (antibody, V domains shown)
VH: EIQLQQSGAELVKPGASVKMSCKASGYTFRYYNMHWVKRTPGQGLEWIGLIYPDNGDTSYNQKFKGKATLTADTSSSTAYMQLSSLTSEDSAVYYCARGGLDYWGQGTTLTVSS
VL: DIVLTQSPASLSASVGETVTITCGASENIYGALNWYQRKQGKSPQLLIYGATNLADGMSSRFSGSGSGRQYSLKISSLHPDDVATYYCQNVLSTPYTFGGGTKLEIK
Turning to B13, the values for the Kd (with mouse FGFR2b; in assay [1]) were 36.1 nM and 5.1 nM, respectively. Also, the results for the EC50 in assay [2] and in assay [3] were 0.105 µg/mL and 0.0159 µg/mL, respectively.

B14: 2B1 (antibody, V domains shown)
VH: EVQLQQSGAELVKPGASVKMSCKASGYTFASYNLHWVKQTPGQGLEWIGLIYPENGDTSYNQKFKGKATLTADKSSSTAYIQLSSLTSEDSAVYFCARGGFDYWGQGTSLTVSS
VL: DIQMIQSPASLSVSVGETVTITCRASENIYSNLAWYQQKQGKSPQLLVYNAKTLADGVPSRFSGSGSGTQYSLKINSLQPEDFGSYYCQHFWSTPYTFGGGTKLEIK
Consider B14, for which the Kd with mouse FGFR2b worked out at 23 nM; in assay [1], 6.67 nM. The EC50 in assay [2] is 0.195 µg/mL; in assay [3] it was 0.0276 µg/mL.

B15: 1B8 (antibody, V domains shown)
VH: QIQLQQSGAELVKPGASVKMSCKASGYTFASYNLHWVKQTPGQGLEWIGLIYPENGDTSYNQKFKGKATLTADTSSTTAYIQLSSLTSEDSAVYFCARGGFDYWGQGTSLTVSS
VL: DIKMTQSPASLSASVGETVTITCGASENIYGALNWYQRKQGKSPQLLIYGATNLADGMSSRFSGSGSGRQYSLKISSLHPDDVATYYCQNVLSTPYTFGGGTKLEIK
Regarding B15, the Kd with mouse FGFR2b came out at 74.9 nM; in assay [1], 13.3 nM. In addition, the figures for the EC50 in assay [2] and in assay [3] were 0.133 µg/mL and 0.0273 µg/mL, respectively.

B16: 3A3 (antibody, V domains shown)
VH: QVQLQQSGAELVKPGASVKMSCKASGYTFTTYNIHWVRQTPGQGLEWIGLIYPDNGDTSYNQKFKAKATLTADKSSSTAYMHLSSLTSEDSAVYYCARGGFDYWGQGTTLTVSS
VL: DIVMTQSHKFMSTSVGDRVSITCKASQDVNTDVSWYQQKPGQSPKLLIYSASYRYTGVPTRFTGSGSGTDFTFTISGVQAEDLADYYCQQHYNTPYTFGGGTRLEIK
As for B16, the Kd in the assay with mouse FGFR2b turned out to be 39.6 nM; in assay [1], 3.71 nM. Moreover, the EC50 in assay [2] was determined as 0.236 µg/mL; in assay [3], 0.0216 µg/mL.
